Assays:
[1] = molecular target: SARS-CoV-2 spike receptor binding domain with C-terminal 3xFlag tag (RBD-3xFlag) (SARS-CoV-2) (UniProt P0DTC2)
[2] = molecular target: SARS-CoV-2 spike receptor binding domain with C-terminal 3xFlag tag (RBD-3xFlag) (SARS-CoV-2) (UniProt P0DTC2); remark: listed apart in the source

## VHH72
[1]
  ELISA A450: 0.287 A450
[2]
  heated/non heated ratio of ELISA reading: 0.33
